In paper PMC1570500:

Biological target: syntaxin 1 (rat (endogenous in PC12)) (UniProt P32851)
Assay: immunostaining of cells or tissue; PC12 membrane sheets incubated in buffer at 37 °C for increasing periods before fixation, immunostained for Munc18–1; no re-binding (large volume of buffer); trace fitted to a double-exponential decay

Chain of UniProt P32851 (P32851 whole entry): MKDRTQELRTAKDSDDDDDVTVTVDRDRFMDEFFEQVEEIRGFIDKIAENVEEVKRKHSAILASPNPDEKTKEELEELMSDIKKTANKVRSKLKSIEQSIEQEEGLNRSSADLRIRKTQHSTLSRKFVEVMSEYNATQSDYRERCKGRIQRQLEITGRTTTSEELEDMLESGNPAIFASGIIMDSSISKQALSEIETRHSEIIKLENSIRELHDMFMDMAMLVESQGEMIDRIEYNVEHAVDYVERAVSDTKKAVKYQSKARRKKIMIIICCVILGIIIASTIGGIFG

- half-time of dissociation from the membrane, fast component of a double-exponential decay: 5 s
- half-time of dissociation from the membrane, slow component of a double-exponential decay: 1000 s
Substance: Munc18–1 (from UniProt P61765 1-594) (natural protein)
